Results from US20180177842A1 (CANIMGUIDE THERAPEUTICS, published 2018).
Ends that are not written are not given here.

T1: His-tagged P3028 (human, also: His tag, length and end not given here)
T1 construct: in solution at 0.5 ug/mL, detected with mouse anti-His antibody and rabbit anti-mouse peroxidase (rampo); also called PGE73; His-tag-P3028; not shown: His tag
T1 peptide: VFDEFKPLVEEPQNLIK

T2: P3028 (VFDEFKPLVEEPQNLIK, SEQ ID NO: 185), His-tagged (human)
T2 construct: Synthetic fragment of human serum albumin (positions 397-413); used in solution as His-tagged peptide PGE73; also called PGE73; not shown: His-tag
T2 peptide: VFDEFKPLVEEPQNLIK

B1: SEQ ID NO 268 (peptide)
peptide: AKLDTFFVKLSLFTER
B2: SEQ ID NO 269 (peptide)
peptide: DKLDTFFVKLSLFTER
B3: SEQ ID NO 270 (peptide)
peptide: EKLDTFFVKLSLFTER
B4: SEQ ID NO 298 (peptide)
peptide: KKLATFFVKLSLFTER
B5: SEQ ID NO 297 (peptide)
peptide: KKVDTFFVKLSLFTER
B6: SEQ ID NO 294 (peptide)
peptide: KKRDTFFVKLSLFTER
B7: SEQ ID NO 291 (peptide)
peptide: KKMDTFFVKLSLFTER
B8: SEQ ID NO 292 (peptide)
peptide: KKNDTFFVKLSLFTER
B9: SEQ ID NO 281 (peptide)
peptide: VKLDTFFVKLSLFTER
B10: SEQ ID NO 288 (peptide)
peptide: KKHDTFFVKLSLFTER
B11: SEQ ID NO 285 (peptide)
peptide: KKEDTFFVKLSLFTER
B12: SEQ ID NO 286 (peptide)
peptide: KKFDTFFVKLSLFTER
B13: SEQ ID NO 271 (peptide)
peptide: GKLDTFFVKLSLFTER
B14: SEQ ID NO 284 (peptide)
peptide: KKDDTFFVKLSLFTER
B15: SEQ ID NO 283 (peptide)
peptide: KKCDTFFVKLSLFTER
B16: SEQ ID NO 280 (peptide)
peptide: TKLDTFFVKLSLFTER
B17: SEQ ID NO 278 (peptide)
peptide: QKLDTFFVKLSLFTER
B18: SEQ ID NO 277 (peptide)
peptide: PKLDTFFVKLSLFTER
B19: SEQ ID NO 287 (peptide)
peptide: KKGDTFFVKLSLFTER
B20: SEQ ID NO 289 (peptide)
peptide: KKIDTFFVKLSLFTER
B21: SEQ ID NO 274 (peptide)
peptide: LKLDTFFVKLSLFTER
B22: SEQ ID NO 295 (peptide)
peptide: KKSDTFFVKLSLFTER
B23: SEQ ID NO 273 (peptide)
peptide: IKLDTFFVKLSLFTER
B24: SEQ ID NO 296 (peptide)
peptide: KKTDTFFVKLSLFTER
B25: SEQ ID NO 275 (peptide)
peptide: MKLDTFFVKLSLFTER
B26: SEQ ID NO 293 (peptide)
peptide: KKQDTFFVKLSLFTER
B27: SEQ ID NO 282 (peptide)
peptide: KKADTFFVKLSLFTER
B28: SEQ ID NO 279 (peptide)
peptide: RKLDTFFVKLSLFTER
B29: SEQ ID NO 276 (peptide)
peptide: NKLDTFFVKLSLFTER
B30: SEQ ID NO 272 (peptide)
peptide: HKLDTFFVKLSLFTER
B31: SEQ ID NO 290 (peptide)
peptide: KKKDTFFVKLSLFTER
B32: KKLRTFFVKLSLFTER (SEQ ID NO: 480) (peptide)
peptide: KKLRTFFVKLSLFTER
B33: MKLDTFFVKLSLFTER (SEQ ID NO: 275) (peptide)
peptide: MKLDTFFVKLSLFTER
B34: KMLDTFFVKLSLFTER (SEQ ID NO: 417) (peptide)
peptide: KMLDTFFVKLSLFTER
B35: YKLDTFFVKLSLFTER (SEQ ID NO: 483) (peptide)
peptide: YKLDTFFVKLSLFTER
B36: LKLDTFFVKLSLFTER (SEQ ID NO: 274) (peptide)
peptide: LKLDTFFVKLSLFTER
B37: KWLDTFFVKLSLFTER (SEQ ID NO: 490) (peptide)
peptide: KWLDTFFVKLSLFTER
B38: KKWDTFFVKLSLFTER (SEQ ID NO: 458) (peptide)
peptide: KKWDTFFVKLSLFTER
B39: PKLDTFFVKLSLFTER (SEQ ID NO: 277) (peptide)
peptide: PKLDTFFVKLSLFTER
B40: KKMDTFFVKLSLFTER (SEQ ID NO: 291) (peptide)
peptide: KKMDTFFVKLSLFTER
B41: KTLDTFFVKLSLFTER (SEQ ID NO: 468) (peptide)
peptide: KTLDTFFVKLSLFTER
B42: KKLYTFFVKLSLFTER (SEQ ID NO: 303) (peptide)
peptide: KKLYTFFVKLSLFTER
B43: KYLDTFFVKLSLFTER (SEQ ID NO: 494) (peptide)
peptide: KYLDTFFVKLSLFTER
B44: KKNDTFFVKLSLFTER (SEQ ID NO: 292) (peptide)
peptide: KKNDTFFVKLSLFTER
B45: KKTDTFFVKLSLFTER (SEQ ID NO: 296) (peptide)
peptide: KKTDTFFVKLSLFTER
B46: VKLDTFFVKLSLFTER (SEQ ID NO: 281) (peptide)
peptide: VKLDTFFVKLSLFTER
B47: KKYDTFFVKLSLFTER (SEQ ID NO: 452) (peptide)
peptide: KKYDTFFVKLSLFTER
B48: KKSDTFFVKLSLFTER (SEQ ID NO: 295) (peptide)
peptide: KKSDTFFVKLSLFTER
B49: KKLWTFFVKLSLFTER (SEQ ID NO: 302) (peptide)
peptide: KKLWTFFVKLSLFTER
B50: KPLDTFFVKLSLFTER (SEQ ID NO: 405) (peptide)
peptide: KPLDTFFVKLSLFTER
B51: SKLDTFFVKLSLFTER (SEQ ID NO: 453) (peptide)
peptide: SKLDTFFVKLSLFTER
B52: KQLDTFFVKLSLFTER (SEQ ID NO: 440) (peptide)
peptide: KQLDTFFVKLSLFTER
B53: KSLDTFFVKLSLFTER (SEQ ID NO: 510) (peptide)
peptide: KSLDTFFVKLSLFTER
notes: also called 30684
B54: KKVDTFFVKLSLFTER (SEQ ID NO: 297) (peptide)
peptide: KKVDTFFVKLSLFTER
B55: RKLDTFFVKLSLFTER (SEQ ID NO: 279) (peptide)
peptide: RKLDTFFVKLSLFTER
B56: KKLTTFFVKLSLFTER (SEQ ID NO: 413) (peptide)
peptide: KKLTTFFVKLSLFTER
B57: KLLDTFFVKLSLFTER (SEQ ID NO: 454) (peptide)
peptide: KLLDTFFVKLSLFTER
B58: KKLSTFFVKLSLFTER (SEQ ID NO: 451) (peptide)
peptide: KKLSTFFVKLSLFTER
B59: KKRDTFFVKLSLFTER (SEQ ID NO: 294) (peptide)
peptide: KKRDTFFVKLSLFTER
B60: WKLDTFFVKLSLFTER (SEQ ID NO: 507) (peptide)
peptide: WKLDTFFVKLSLFTER
B61: KKPDTFFVKLSLFTER (SEQ ID NO: 436) (peptide)
peptide: KKPDTFFVKLSLFTER
B62: KRLDTFFVKLSLFTER (SEQ ID NO: 407) (peptide)
peptide: KRLDTFFVKLSLFTER
B63: QKLDTFFVKLSLFTER (SEQ ID NO: 278) (peptide)
peptide: QKLDTFFVKLSLFTER
B64: P27 (KKLDTFFKKLSLFTER, SEQ ID NO: 264) (peptide)
peptide: KKLDTFFKKLSLFTER
notes: also called SCF 27; SCF27
B65: TKLDTFFVKLSLFTER (SEQ ID NO: 280) (peptide)
peptide: TKLDTFFVKLSLFTER
B66: KNLDTFFVKLSLFTER (SEQ ID NO: 402) (peptide)
peptide: KNLDTFFVKLSLFTER
B67: KVLDTFFVKLSLFTER (SEQ ID NO: 481) (peptide)
peptide: KVLDTFFVKLSLFTER
B68: NKLDTFFVKLSLFTER (SEQ ID NO: 276) (peptide)
peptide: NKLDTFFVKLSLFTER
B69: KKQDTFFVKLSLFTER (SEQ ID NO: 293) (peptide)
peptide: KKQDTFFVKLSLFTER

Target: T1, His-tagged P3028
Test: PEPSCAN ELISA, peptide on chip;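 note: binding detected by peroxidase ELISA with ABTS, OD405 colour imaged by CCD camera before and after staining, raw OD405 reported as rampo units, air-bubble wells scored 0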
Method: After washing, the peroxidase substrate 2,2′-azine-di-3-ethylbenzthiazoline sulfonate (ABTS) and 2 μL of 3% H2O2 were added. The binding capacity of the mAb was measured as a color development at 405 nm (optical density, OD405). The color development was quantified with a charge-coupled device (CCD)—camera and an image processing system.
The OD405-values obtained by a CCD-camera was considered as raw data values (“rampo values,” “rampo units,” or “rampo scores”). […] First the CCD-camera made a picture of the card before peroxidase coloring and then again a picture after the peroxidase coloring. […] These values were copied into an excel file and labeled as a raw data file. […] Sometimes a well can contain an air-bubble resulting in a false-positive value. If manual inspection of the cards detect an air-bubble the value are set to 0 for well.

Row | RAMPO Score | Binder
1 | 466 rampo units | B1
2 | 373 rampo units | B2
3 | 396 rampo units | B3
4 | 494 rampo units | B4
5 | 377 rampo units | B5
6 | 370 rampo units | B6
7 | 460 rampo units | B7
8 | 374 rampo units | B8
9 | 442 rampo units | B9
10 | 477 rampo units | B10
11 | 528 rampo units | B11
12 | 393 rampo units | B12
13 | 367 rampo units | B13
14 | 492 rampo units | B14
15 | 432 rampo units | B15
16 | 493 rampo units | B16

Row | RAMPO Score | Binder
17 | 455 rampo units | B17
18 | 387 rampo units | B18
19 | 563 rampo units | B19
20 | 454 rampo units | B20
21 | 449 rampo units | B21
22 | 393 rampo units | B22
23 | 483 rampo units | B23
24 | 451 rampo units | B24
25 | 457 rampo units | B25
26 | 473 rampo units | B26
27 | 427 rampo units | B27
28 | 523 rampo units | B28
29 | 445 rampo units | B29
30 | 428 rampo units | B30
31 | 386 rampo units | B31

Target: T2, P3028 (VFDEFKPLVEEPQNLIK, SEQ ID NO: …)
Test: PEPSCAN ELISA; peptide on chip, His-P3028 added;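 note: peroxidase color development with ABTS and H2O2 substrate, OD405 imaged by CCD camera with image processing and taken as raw values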

Row | RAMPO Score | Binder
32 | 317 rampo units | B32
33 | 457 rampo units | B33
34 | 400 rampo units | B34
35 | 315 rampo units | B35
36 | 449 rampo units | B36
37 | 304 rampo units | B37
38 | 341 rampo units | B38
39 | 387 rampo units | B39
40 | 460 rampo units | B40
41 | 331 rampo units | B41
42 | 422 rampo units | B42
43 | 301 rampo units | B43
44 | 374 rampo units | B44
45 | 451 rampo units | B45
46 | 442 rampo units | B46
47 | 344 rampo units | B47
48 | 393 rampo units | B48
49 | 443 rampo units | B49
50 | 425 rampo units | B50

Row | RAMPO Score | Binder
51 | 344 rampo units | B51
52 | 350 rampo units | B52
53 | 281 rampo units | B53
54 | 377 rampo units | B54
55 | 523 rampo units | B55
56 | 405 rampo units | B56
57 | 343 rampo units | B57
58 | 344 rampo units | B58
59 | 370 rampo units | B59
60 | 284 rampo units | B60
61 | 361 rampo units | B61
62 | 417 rampo units | B62
63 | 455 rampo units | B63
64 | 253 rampo units | B64
65 | 493 rampo units | B65
66 | 432 rampo units | B66
67 | 317 rampo units | B67
68 | 445 rampo units | B68
69 | 473 rampo units | B69
